The source of these data is paper PMC4505944, “The THERMOSENSITIVE MALE STERILE 1 Interacts with the BiPs via DnaJ Domain and Stimulates Their ATPase Enzyme Activities in Arabidopsis” (PLoS ONE, 2015).

Assay [1] deals with T1, BiP3 without signal peptide, His-tagged (Arabidopsis thaliana, UniProt Q8H1B3 36-675).
T1 construct: full-length CDS without the signal peptide; Cloned into pET30a(+) (EcoRI/XhoI); further vector-derived residues between the tag and BiP3 are likely; also called BiP3-His; source: E. coli BL21, purified, dialyzed; not shown: His6, N-terminal, kept
Description: pull-down; 30 μg GST fusion or GST on Glutathione Sepharose 4B beads; 30 μg purified BiP1 or BiP3 with 1 mM ATP in 1 mL binding buffer (20 mM Hepes pH 6.8, 100 mM KCl, 5 mM MgCl2, 0.1% NP-40, 2% glycerol, 1 mM DTT, 1 mM EDTA), 4°C, 2 h; anti-His blot. The note with it: both partners purified.

Assay [2] addresses T2, BiP1 without signal peptide, His-tagged (Arabidopsis thaliana, UniProt Q9LKR3 28-669).
T2 construct: full-length CDS without the signal peptide; Cloned into pET30a(+) (EcoRI/XhoI); further vector-derived residues between the tag and BiP1 are likely; also called BiP1-His; source: E. coli BL21, purified, dialyzed; not shown: His6, N-terminal, kept
The description is as above. Conditions: both partners purified.

T2 sequence (Q9LKR3 28-669): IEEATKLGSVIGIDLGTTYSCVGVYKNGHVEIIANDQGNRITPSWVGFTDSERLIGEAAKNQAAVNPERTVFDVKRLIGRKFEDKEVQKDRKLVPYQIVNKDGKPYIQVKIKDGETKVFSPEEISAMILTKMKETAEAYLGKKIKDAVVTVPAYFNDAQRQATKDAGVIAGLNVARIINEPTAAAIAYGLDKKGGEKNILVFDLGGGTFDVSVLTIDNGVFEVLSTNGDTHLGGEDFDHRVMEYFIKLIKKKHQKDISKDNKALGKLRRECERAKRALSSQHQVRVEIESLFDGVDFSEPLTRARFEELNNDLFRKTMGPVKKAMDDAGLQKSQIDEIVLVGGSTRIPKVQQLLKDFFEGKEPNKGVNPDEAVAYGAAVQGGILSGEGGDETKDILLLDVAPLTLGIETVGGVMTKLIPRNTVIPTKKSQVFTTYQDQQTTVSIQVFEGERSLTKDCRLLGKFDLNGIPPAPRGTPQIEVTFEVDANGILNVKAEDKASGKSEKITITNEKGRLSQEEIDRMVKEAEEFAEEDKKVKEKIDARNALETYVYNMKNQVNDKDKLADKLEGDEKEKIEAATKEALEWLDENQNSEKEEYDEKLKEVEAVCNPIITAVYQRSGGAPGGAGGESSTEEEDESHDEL
T1 sequence (Q8H1B3 36-675): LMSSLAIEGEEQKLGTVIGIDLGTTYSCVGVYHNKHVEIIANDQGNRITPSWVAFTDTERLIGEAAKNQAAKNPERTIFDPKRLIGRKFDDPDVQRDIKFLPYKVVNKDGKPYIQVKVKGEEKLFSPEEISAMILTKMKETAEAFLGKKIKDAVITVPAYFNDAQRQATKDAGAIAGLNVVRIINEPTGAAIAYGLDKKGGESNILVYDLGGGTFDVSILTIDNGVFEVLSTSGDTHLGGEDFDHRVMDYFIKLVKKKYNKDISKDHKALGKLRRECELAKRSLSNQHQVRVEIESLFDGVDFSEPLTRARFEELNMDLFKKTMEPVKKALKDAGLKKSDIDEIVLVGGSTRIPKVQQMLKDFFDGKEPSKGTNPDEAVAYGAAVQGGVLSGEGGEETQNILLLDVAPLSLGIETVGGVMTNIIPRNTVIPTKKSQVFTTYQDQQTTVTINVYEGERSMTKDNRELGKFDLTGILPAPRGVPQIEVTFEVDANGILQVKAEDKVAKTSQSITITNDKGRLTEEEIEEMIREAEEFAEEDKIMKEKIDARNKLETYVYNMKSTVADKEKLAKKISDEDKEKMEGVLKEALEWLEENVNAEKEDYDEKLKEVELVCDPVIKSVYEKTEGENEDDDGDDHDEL

B1: recombinant TMS1 DnaJ domain with a GST tag (domain or fragment, Arabidopsis thaliana, UniProt Q9SR96 27-80, looked up)
chain: DPYKVLGVSKDAKQREIQKAFHKQSLKYHPDKNKDKGAQEKFAEINNAYEILSD
notes: DnaJ domain of TMS1 (AtERdj3A), Arabidopsis thaliana, 54 amino acid residues, 27-80 aa in TMS1; Cloned into pGEX4T-1 (EcoRI/XhoI); also called GST-DnaJ; source: E. coli BL21, purified, dialyzed
Turning to B1, the binding result in assay [1] and in assay [2] was “binds” each time.
